Assay [1] has as its target T1, soluble human FcRn (extra-cellular domain of heavy chain and β2M) (human, UniProt P55899 24-297; P61769 21-119).
T1 construct: also called shFcRn; soluble hFcRn
Kind of assay: SPR, sol Fab, pH 7.4.

Assay [2] has as its target T1, soluble human FcRn (extra-cellular …). In words: SPR 8500, hFcRn pH 6.
The target of assay [3] is T2, soluble rat FcRn (rat, UniProt P13599 23-298; P07151 21-119).
T2 construct: Soluble protein; whole entries named; also called sol rat FcRn
T2 sequence: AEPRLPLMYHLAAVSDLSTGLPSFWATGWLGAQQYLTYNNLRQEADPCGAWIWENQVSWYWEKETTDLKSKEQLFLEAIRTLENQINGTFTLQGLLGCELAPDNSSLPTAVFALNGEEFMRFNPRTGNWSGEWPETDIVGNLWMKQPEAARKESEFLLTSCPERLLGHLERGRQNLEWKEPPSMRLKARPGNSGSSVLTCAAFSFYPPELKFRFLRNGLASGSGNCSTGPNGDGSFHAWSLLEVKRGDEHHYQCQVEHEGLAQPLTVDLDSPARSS
T2 sequence (b2m): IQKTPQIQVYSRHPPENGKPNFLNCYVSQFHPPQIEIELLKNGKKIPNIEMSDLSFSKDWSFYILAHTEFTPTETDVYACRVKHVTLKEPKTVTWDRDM
Kind of assay: SPR 8500, rat FcRn pH 6.

Assay [4] concerns the target T1, soluble human FcRn (extra-cellular …). Kind of assay: SPR 8500, hFcRn pH 7.4.
For assay [5] the target is unchanged. Kind of assay: SPR, sol Fab, pH 6.0.
Assay [6] deals with T2, soluble rat FcRn. Kind of assay: SPR 8500, rat FcRn pH 7.4; rat FcRn pH 7.4.
For assay [7], the target named is T2, soluble rat FcRn. In words: SPR 8500, rat FcRn pH 6. The source holds these as a separate data set.
The target of assay [8] is T3, rat FcRn / rat β2M expressed on cells (rat, UniProt P13599 23-366; P07151 21-119).
T3 construct: also called rat FcRn (cells); rat fibroblasts expressing rat FcRn
T3 sequence: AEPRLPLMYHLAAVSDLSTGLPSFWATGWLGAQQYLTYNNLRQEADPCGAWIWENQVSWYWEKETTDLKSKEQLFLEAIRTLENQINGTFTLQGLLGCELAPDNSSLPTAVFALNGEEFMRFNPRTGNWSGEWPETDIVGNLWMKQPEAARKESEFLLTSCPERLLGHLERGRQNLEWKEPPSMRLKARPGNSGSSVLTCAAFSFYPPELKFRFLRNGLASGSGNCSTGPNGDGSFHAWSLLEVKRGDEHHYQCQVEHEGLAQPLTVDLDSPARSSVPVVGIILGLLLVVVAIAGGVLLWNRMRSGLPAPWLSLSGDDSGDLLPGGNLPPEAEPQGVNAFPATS
T3 sequence (b2m): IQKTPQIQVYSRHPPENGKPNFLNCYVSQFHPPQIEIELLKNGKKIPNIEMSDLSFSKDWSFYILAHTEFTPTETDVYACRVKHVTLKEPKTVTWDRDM
Kind of assay: FACS blocking of IgG-Fc, sol Fab, pH 6.

Assay [9] deals with T4, human FcRn / human β2M expressed in 293 C11 cells (human, UniProt P55899 24-365; P61769 21-119).
T4 construct: HEK 293 cells engineered to overexpress FcRn; also called hFcRn (cells); hFcRn in THP-1 and Caco-2 cells
In words: FACS blocking of IgG-Fc, sol Fab, pH 6.

For assay [10], the target named is T1, soluble human FcRn (extra-cellular …). In words: SPR 8500, sol Fab, pH 6.
The target in assay [11] is T2, soluble rat FcRn. In words: SPR 8500, sol Fab, pH 6.
The target of assay [12] is T1, soluble human FcRn (extra-cellular …). Kind of assay: SPR 8500, hFcRn pH 7.4. The source holds these as a separate data set.
Assay [13] has the same target. In words: SPR 8500, sol Fab, pH 7.5.
Assay [14] has as its target T2, soluble rat FcRn. Kind of assay: SPR 8500, sol Fab, pH 7.5.
Assay [15] has as its target T2, soluble rat FcRn. In words: SPR 8500, rat FcRn pH 7.4.
Assay [16] concerns the target T1, soluble human FcRn (extra-cellular …). Kind of assay: SPR 8500, hFcRn pH 6. This is another data set of the same source.
For assay [17] the target is unchanged. In words: Biacore, hFcRn on chip, IgG flowed, pH 7.4.
For assay [18] the target is unchanged. Kind of assay: Biacore, hFcRn on chip, IgG flowed, pH 6. In general terms: In SPR one partner is held on a chip, and binding of the other changes the refractive index at the surface.
For assay [19], the target named is T4, human FcRn / human β2M expressed in 293 …. In words: FACS blocking, hFcRn cells, pH 6.
The target of assay [20] is T1, soluble human FcRn (extra-cellular …). Kind of assay: Biacore, IgG on chip, hFcRn flowed, pH 7.4.
Assay [21] shares this target. Kind of assay: Biacore, IgG on chip, hFcRn flowed, pH 6.
Assay [22] shares this target. Kind of assay: Biacore, IgG on chip, hFcRn flowed, pH 7.4. This is another data set of the same source.

3 molecules from patent US20160222109A1 (DYAX, published 2016) can be followed below.

T1 sequence (P55899 24-297 limits assumed, chain 1 of 2): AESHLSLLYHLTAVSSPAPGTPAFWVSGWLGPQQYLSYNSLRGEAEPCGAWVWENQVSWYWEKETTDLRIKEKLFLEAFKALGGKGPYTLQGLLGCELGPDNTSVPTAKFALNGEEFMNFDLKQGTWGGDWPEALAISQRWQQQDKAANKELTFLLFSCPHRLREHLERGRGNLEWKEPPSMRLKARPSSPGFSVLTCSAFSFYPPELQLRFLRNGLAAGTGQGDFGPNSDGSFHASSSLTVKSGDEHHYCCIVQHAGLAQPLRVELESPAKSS
T1 sequence (P61769 21-119 limits assumed, chain 2 of 2): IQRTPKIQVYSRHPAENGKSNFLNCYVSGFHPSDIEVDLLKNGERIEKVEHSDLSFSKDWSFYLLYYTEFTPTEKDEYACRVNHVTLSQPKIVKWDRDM
T4 sequence (P55899 24-365 limits assumed, chain 1 of 2): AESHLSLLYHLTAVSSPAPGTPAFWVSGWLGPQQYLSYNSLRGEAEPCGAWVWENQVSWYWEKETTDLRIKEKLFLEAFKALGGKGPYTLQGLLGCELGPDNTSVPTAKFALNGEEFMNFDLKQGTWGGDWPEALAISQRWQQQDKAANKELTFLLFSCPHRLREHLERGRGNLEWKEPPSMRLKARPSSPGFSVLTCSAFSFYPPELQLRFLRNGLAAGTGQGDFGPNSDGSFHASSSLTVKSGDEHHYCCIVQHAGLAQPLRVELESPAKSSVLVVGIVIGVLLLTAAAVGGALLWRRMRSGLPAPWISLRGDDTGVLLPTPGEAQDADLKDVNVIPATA
T4 sequence (P61769 21-119 limits assumed, chain 2 of 2): as the sequence (P61769 21-119 limits assumed, chain 2 of 2) above

B1: 532A-M0090-F11 soluble Fab (Fab)
VH: EVQLLESGGGLVQPGGSLRLSCAASGFTFSEYAMGWVRQAPGKGLEWVSSIGSSGGQTKYADSVKGRFTISRDNSKNTLYLQMNSLRAEDTAVYYCARLSTGELYWGQGTLVTVSS
light: QSVLTQPASVSGSPGQSITISCTGTGSDVGSYNLVSWYQKYPGKAPKLIIYGDSQRPSGLSSRFSGSKSGNSASLTISGLQAEDEADYYCCSYAGSGIYVFGSGTKVTVLSQPKANPTVTLFPPSSEELQANKATLVCLISDFYPGAVTVAWKADGSPVKAGVETTKPSKQSNNKYAASSYLSLTPEQWKSHRSYSCQVTHEGSTVEKTVAPAECS
notes: sFab from phage display; CH1 not set out for the Fab; also called M90-F11 (Fab); M090-F11
As a reminder, the Kd is the equilibrium constant for the complex coming apart. Read a high Kd as lower affinity. One may read the IC50 as the midpoint of a concentration-inhibition curve. High values mean a need for much substance, low ones inhibition by little substance. Consider B1, for which the “Fold Kd Improvement Over Germlined M90-F11” value in assay [1] is 2.3 fold. Besides, the Kd was 13 nM in assay [1]; 9.2 nM in [2]; 31.2 nM in assay [3]; 7.08 nM in assay [4]; 12 nM in [5]; 9.96 nM in [6]. Moreover, the Kd turned out to be 20.3 nM in assay [7]; 9.2 nM in assay [10]; 31.2 nM in assay [11]; 19.1 nM in [12]; 19.1 nM in [13]; 9.9 nM in [14]. In addition, the Kd in assay [15] was 3.29 nM; in assay [16], 6.11 nM. Moreover, the concentration for half-maximal inhibition (IC50) in [8] is 6480 nM; in [9] it was 13 nM.

B2: 532A-M0090-F11 (germlined LC changes) IgG (antibody)
heavy: EVQLLESGGGLVQPGGSLRLSCAASGFTFSEYAMGWVRQAPGKGLEWVSSIGSSGGQTKYADSVKGRFTISRDNSKNTLYLQMNSLRAEDTAVYYCARLSTGELYWGQGTLVTVSSASTKGPSVFPLAPSSKSTSGGTAALGCLVKDYFPEPVTVSWNSGALTSGVHTFPAVLQSSGLYSLSSVVTVPSSSLGTQTYICNVNHKPSNTKVDKKVEPKSCDKTHTCPPCAPELLGGPSVFLFPPKPKDTLMISRTPEVTCVVVDVSHEDPEVKFNWYVDGVEVHNAKTKPREEQYNSTYRVVSVLTVLHQDWLNGKEYKCKVSNKALPAPIEKTISKAKGQPREPQVYTLPPSPREPQVYTLPPSRDELTKNQVSLTCLVKGFYPSDIAVEWESNGQPENNYKTTPPVLDSDGSFFLYSKLTVDKSRWQQGNVFSCSVMHEALHNHYTQKSLSLSPGK
light: QSALTQPASVSGSPGQSITISCTGTGSDVGSYNLVSWYQQHPGKAPKLMIYGDSQRPSGVSNRFSGSKSGNTASLTISGLQAEDEADYYCCSYAGSGIYVFGTGTKVTVLGQPKANPTVTLFPPSSEELQANKATLVCLISDFYPGAVTVAWKADGSPVKAGVETTKPSKQSNNKYAASSYLSLTPEQWKSHRSYSCQVTHEGSTVEKTVAPTECS
notes: also called Germlined M90-F11 (GL)
One may read the koff as the rate constant with which the complex falls apart. A high value points to a short-lived complex. A word on the kon: it is the rate constant with which the complex forms. High values mean fast association, low ones slow association. For B2, the dissociation constant (Kd) in assay [17] was determined as 0.779 nM; in [18] it was 0.172 nM; in [20], 35.2 nM; in assay [21] it was 29.9 nM. For the same molecule, the koff in assay [17] stood at 0.000776 s⁻¹; in [18], 0.000764 s⁻¹; in [20], 0.0152 s⁻¹; in assay [21], 0.0172 s⁻¹. Also, the kon was 996000 M⁻¹ s⁻¹ in [17], 4.45e+06 M⁻¹ s⁻¹ in assay [18], 433000 M⁻¹ s⁻¹ in [20] and 574000 M⁻¹ s⁻¹ in [21]. Besides, 0.38 nM corresponded to half-maximal inhibition in [19] (IC50).

B3: DX-2500 (germlined LC & allotype HC changes) (antibody)
heavy: EVQLLESGGGLVQPGGSLRLSCAASGFTFSEYAMGWVRQAPGKGLEWVSSIGSSGGQTKYADSVKGRFTISRDNSKNTLYLQMNSLRAEDTAVYYCARLSTGELYWGQGTLVTVSSASTKGPSVFPLAPSSKSTSGGTAALGCLVKDYFPEPVTVSWNSGALTSGVHTFPAVLQSSGLYSLSSVVTVPSSSLGTQTYICNVNHKPSNTKVDKRVEPKSCDKTHTCPPCAPELLGGPSVFLFPPKPKDTLMISRTPEVTCVVVDVSHEDPEVKFNWYVDGVEVHNAKTKPREEQYNSTYRVVSVLTVLHQDWLNGKEYKCKVSNKALPAPIEKTISKAKGQPREPQVYTLPPSPREPQVYTLPPSREEMTKNQVSLTCLVKGFYPSDIAVEWESNGQPENNYKTTPPVLDSDGSFFLYSKLTVDKSRWQQGNVFSCSVMHEALHNHYTQKSLSLSPGK
light: QSALTQPASVSGSPGQSITISCTGTGSDVGSYNLVSWYQQHPGKAPKLMIYGDSQRPSGVSNRFSGSKSGNTASLTISGLQAEDEADYYCCSYAGSGIYVFGTGTKVTVLGQPKANPTVTLFPPSSEELQANKATLVCLISDFYPGAVTVAWKADGSPVKAGVETTKPSKQSNNKYAASSYLSLTPEQWKSHRSYSCQVTHEGSTVEKTVAPTECS
notes: IgG, F allotype; 13 amino acid changes against parent M90-F11
In assay [17], B3 yielded an equilibrium dissociation constant (Kd) of 0.268 nM, an off-rate constant (koff) of 0.000338 s⁻¹ and a kon of 1.26e+06 M⁻¹ s⁻¹. In assay [18], this molecule returned a Kd of 0.16 nM, a koff of 0.000336 s⁻¹ and an association rate constant (kon) of 2.11e+06 M⁻¹ s⁻¹. Moreover, in assay [19], the IC50 was found to be 0.65 nM. In assay [21], this molecule had a Kd of 27.6 nM, a koff of 0.0177 s⁻¹ and a kon of 642000 M⁻¹ s⁻¹. In addition, in [22], the “K off Fold improvement over DX2500” value amounted to 1 fold, the “K off Fold improvement over M90-F11” value came out at 0.15 fold, the “KD Fold improvement over DX2500” value was found to be 1 fold and the “KD Fold improvement over M90-F11” value turned out to be 0.21 fold. In assay [22], this molecule showed a dissociation constant (Kd) of 87.9 nM, a dissociation rate constant (koff) of 0.0197 s⁻¹ and an on-rate (kon) of 224000 M⁻¹ s⁻¹.
